We go through 6 molecules from patent publication US20250051449A1 (SURFACE ONCOLOGY, published 2025).

Assay [1] deals with T1, human CD112R expressed on Jurkat cells (human, UniProt Q6DKI7 1-326).
T1 construct: whole, on cells; Used for both Jurkat-CD112R OE cells and wild type Jurkat cells; which cells is said under assay; also called PVRIG; Jurkat-CD112R OE
T1 sequence (looked up): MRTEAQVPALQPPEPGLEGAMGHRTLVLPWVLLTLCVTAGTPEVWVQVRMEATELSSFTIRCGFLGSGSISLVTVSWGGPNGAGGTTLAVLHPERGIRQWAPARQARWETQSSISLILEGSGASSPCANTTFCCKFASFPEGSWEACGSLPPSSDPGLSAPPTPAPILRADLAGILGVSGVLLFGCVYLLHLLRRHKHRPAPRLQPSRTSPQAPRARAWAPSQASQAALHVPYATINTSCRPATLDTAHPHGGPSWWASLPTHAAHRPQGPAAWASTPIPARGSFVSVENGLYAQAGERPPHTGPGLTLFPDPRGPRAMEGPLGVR
Put plainly: flow cytometry, wild type Jurkat cells, 0.63 ug/mL antibody. On the procedure: (§1) The ability of anti-CD112R antibodies to bind to CD112R expressed on cells was evaluated. 1×10⁵ Jurkat cells (acute T cell leukemia cell line, ATCC #TIB-152) that were either wild type or engineered to over-express human CD112R (Jurkat-CD112R OE) were added to each well of a 96-well V bottom plate and stained with either anti-CD112R antibodies or an IgG1 isotype control (0.63 μg/mL) for 1 hour at 4° C. Cells were washed twice with PBS+2% FCS and resuspended with Alexa Fluor® 647 anti-human IgG Fc antibody (Biolegend, Cat #409320) diluted 1:100 in PBS+2% FCS and incubated at 4° C. for 30 minutes. Cells were subsequently washed twice and resuspended in PBS+2% FCS. Cellular data was acquired using a LSRFortessa X-20 (BD Biosciences) and analyzed with FlowJo software (Tree Star).
A general note: Flow cytometry measures light scatter and fluorescence of single cells or particles in a stream.

Assay [2] deals with T1, human CD112R expressed on Jurkat cells. Put plainly: flow cytometry competition on Jurkat-CD112R OE cells; competitor biotinylated his-tagged human CD112. The protocol:
The ability of anti-CD112R antibodies to block CD112 binding to CD112R expressing cells was evaluated. 1×10⁵ Jurkat cells (acute T cell leukemia cell line, ATCC #TIB-152) that were engineered to over-express human CD112R (Jurkat-CD112R OE) were added to each well of a 96-well V bottom plate and stained with serial dilutions of either anti-CD112R antibodies or an IgG1 isotype control (highest concentration, 10 μg/mL) for 1 hour at 4° C. Cells were washed twice with PBS+2% FCS and resuspended with biotinylated his-tagged human CD112 (3 μg/mL) (BPS Bioscience, #71234) and PE Streptavidin (5 μg/mL) (Biolegend, #405204) in PBS+2% FCS and incubated at 2 hours at 4° C. Cells were subsequently washed twice and resuspended in PBS+2% FCS. Cellular data was acquired using a LSRFortessa X-20 (BD Biosciences) and analyzed with FlowJo software (Tree Star).
Results are depicted in FIG. 2A and Table 2. […] Percent inhibition was calculated as [100−((test sample MFI/Max MFI)*100%)]

Assay [3] shares this target. Put plainly: flow cytometry, Jurkat cells over-expressing human CD112R, 0.63 ug/mL antibody. On the procedure:
as §1
Results are depicted in FIG. 1. Quantitation of antibody binding to Jurkat-CD112R OE cells was assessed by the geometric mean fluorescent intensity (gMFI) of the Alexa Fluor® 647 signal.

In assay [4] the target is T2, CD112R-hIgG4 fusion protein (human, UniProt Q6DKI7 41-171, limits assumed).
T2 construct: also called human CD112R-hIgG4; not shown: human IgG4 portion (hIgG4)
T2 sequence (looked up): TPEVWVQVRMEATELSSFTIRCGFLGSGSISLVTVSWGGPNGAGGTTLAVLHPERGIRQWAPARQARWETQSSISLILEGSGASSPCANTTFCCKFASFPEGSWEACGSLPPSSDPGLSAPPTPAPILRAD
Put plainly: blocking ELISA: coated CD112R-hIgG4, antibody, then biotinylated CD112 Fc. On the procedure:
The ability of anti-CD112R antibodies to block human CD112R was also evaluated by ELISA. Briefly, 96 well Nunc Maxisorp plates were coated with 1 μg/mL of a CD112R-hIgG4 fusion protein in PBS overnight at 4° C. […] After blocking, plates were washed 6× with PBST. Next, 100 μl of anti-CD112R antibodies in PBS+1% BSA was added at a final starting concentration of 10 μg/mL, with 4-fold serial dilutions. Plates were incubated at room temperature for 1.5 hours. Next plates were washed 6× with PBST and then incubated with 1 μg/ml CD112 Fc protein (R&D Systems, Cat #9317-N2-050) that was biotinylated with a sulfo-NHS biotinylation kit (Thermo Fisher, Cat #21925) in 100 μl of PBS+1% BSA for 1 hour at room temperature. Plates were then washed 6× with PBST and subsequently incubated with streptavidin-HRP (Biolegend, Cat #405210) diluted in PBS+1% BSA according to the manufacturer recommendation for 1 hour at room temperature. Following this incubation, plates were then washed 6× with PBST and developed with TMB substrate (Life Technologies, Cat #002023). The reaction was stopped with an equal volume of stop solution (Life Technologies, Cat #SS04). Absorbance at 450 nm (O.D. 450) was measured on a SpectraMax plate reader.
Results are depicted in FIG. 2B and Table 2. […] Percent inhibition was calculated as [100−((test sample O.D. 450/Max 0.D. 450)*100%)] Max O.D. 450 was defined as absorbance at 450 nm in the absence of antibody.

B1: Antibody 10 (antibody, V domains shown)
VH: EVQLVESGGGLVQPGRSLRLSCAASGFTFDDYAVHWVRQAPGKGLEWVSGISWSSGLIGYADSVKGRFTISRDNAKNSLYLQMNSLRAEDTAVYYCAKGPPTYQDYFDLWGRGTLVTVSS
VL: EIVLTQSPATLSLSPGERATLSCRASQSVSRYLAWYQQKPGQAPRLLIYDASNRATGIPARFSGSGSGTDFTLTISSLEPEDFAVYYCQQVSFFPPITFGGGTKVEIK
notes: Purified as IgG; compared with an IgG1 isotype control and detected with anti-human IgG Fc; also called antibody clone number 10; clone 10
The IC50 is the concentration that inhibits the measured activity by half. Turning to B1, the “gMFI (fold increase over isotype)” value in assay [1] was 4.6 fold increase over isotype. In addition, in assay [2], the “CD112 blocking max inhibition (%)” value is 96.8% and the 50% inhibitory concentration (IC50) was 0.69 ng/mL. The “gMFI (fold increase over isotype)” value in assay [3] is 55.7 fold increase over isotype. In addition, in assay [4], the “CD112 blocking max inhibition ELISA (%)” value was 96.3%.

B2: Antibody 15 (antibody, V domains shown)
VH: EVQLVESGGGLVQPGRSLRLSCTASGFTFGDVAMSWFRQAPGKGLEWVGYIGSKAYGGETEYTASVKGRFTISRDGSKSIAYLQMNSLKTEDTAVYYCARAGHSYGSIASNWFDPWGQGTLVTVSS
VL: DIQMTQSPSSLSASVGDRVTITCRASQSISSYLNWYQQKPGKAPKLLIYGASSLQSGVPSRFSGSGSGTDFTLTISSLQPEDFATYYCQQGFYTPWTFGGGTKVEIK
notes: Purified as IgG; compared with an IgG1 isotype control and detected with anti-human IgG Fc; also called antibody clone number 15; clone 15
Take B2: in assay [1], the “gMFI (fold increase over isotype)” value was 4 fold increase over isotype. In addition, in assay [2], the “CD112 blocking max inhibition (%)” value stood at 97.9% and the half-inhibitory concentration (IC50) was 0.51 ng/mL. For the same molecule, the “gMFI (fold increase over isotype)” value in assay [3] was 53.2 fold increase over isotype. The “CD112 blocking max inhibition ELISA (%)” value in assay [4] came out at 97%.

B3: Antibody 38 (antibody, V domains shown)
VH: EVQLLESGGGLVQPGGSLRLSCAASGFTFSGHLMSWVRQAPGKGLEWVSAISGSAGETYYADSVKGRFTISRDNSKNTLYLQMNSLRAEDTAVYYCARDAYYDDWSGWADWYFDLWGRGTLVTVSS
VL: EIVLTQSPATLSLSPGERATLSCRASQSVSRYLAWYQQKPGQAPRLLIYDASNRATGIPARFSGSGSGTDFTLTISSLEPEDFAVYYCQQVSLLPPTFGGGTKVEIK
notes: Purified as IgG; compared with an IgG1 isotype control and detected with anti-human IgG Fc; also called antibody clone number 38; clone 38
Consider B3, for which, in assay [1], the “gMFI (fold increase over isotype)” value was 3.8 fold increase over isotype. Also, in assay [2], the “CD112 blocking max inhibition (%)” value turned out to be 95.5% and the 50% inhibitory concentration (IC50) was 0.19 ng/mL. The “gMFI (fold increase over isotype)” value in assay [3] is 51.7 fold increase over isotype. Also, the “CD112 blocking max inhibition ELISA (%)” value in assay [4] is 97.2%.

B4: Antibody 44 (antibody, V domains shown)
VH: QVQLVQSGAEVKKPGSSVKVSCKASGGTFDNYYISWVRQAPGQGLEWMGGIFPIFGTANYAQKFQGRVTITADESTSTAYMELSSLRSEDTAVYYCAREVGHYSGSPYYMDVWGKGTTVTVSS
VL: DIQMTQSPSTLSASVGDRVTITCRASQSINSWLAWYQQKPGKAPKLLISDASSLESGVPSRFSGSGSGTEFTLTISSLQPDDFATYYCQQVGPYLTFGGGTKVEIK
notes: Purified as IgG; compared with an IgG1 isotype control and detected with anti-human IgG Fc; also called antibody clone number 44; clone 44
For B4, the “gMFI (fold increase over isotype)” value in assay [1] is 4.8 fold increase over isotype. Besides, in assay [2], the “CD112 blocking max inhibition (%)” value turned out to be 97.7% and the concentration for half-maximal inhibition (IC50) was 0.81 ng/mL. The “gMFI (fold increase over isotype)” value in assay [3] is 46.9 fold increase over isotype. Further, in assay [4], the “CD112 blocking max inhibition ELISA (%)” value was determined as 96.8%.

B5: Antibody 2 (antibody, V domains shown)
VH: EVQLVESGGGLVKPGGSLRLSCAASGFTFSEYTMNWVRQAPGKGLEWVSAIVGSGDSTYYADSVKGRFTISRDNSKNTLYLQMNSLRAEDTAVYYCAKDYSSGDWIDYGMDVWGQGTTVTVSS
VL: DIQMTQSPSSLSASVGDRVTITCQASQDISNYLNWYQQKPGKAPKLLIYDASNLATGVPSRFSGSGSGTDFTFTISSLQPEDIATYYCQQFDLLPPTFGGGTKVEIK
notes: Purified as IgG; compared with an IgG1 isotype control and detected with anti-human IgG Fc; also called antibody clone number 2; clone 2
As to B5, the “gMFI (fold increase over isotype)” value in assay [1] is 4.7 fold increase over isotype. Moreover, in assay [2], the “CD112 blocking max inhibition (%)” value was determined as 94.1% and the half-inhibitory concentration (IC50) is 0.83 ng/mL. Further, the “gMFI (fold increase over isotype)” value in assay [3] was 63.9 fold increase over isotype. Also, the “CD112 blocking max inhibition ELISA (%)” value in assay [4] was found to be 97%.

B6: Antibody 5 (antibody, V domains shown)
VH: EVQLLESGGGLVQPGGSLRLSCAASGFTFSDYAMIWVRQAPGKGLEWVSAISGGGESTYYADSVKGRFTISRDNSKNTLYLQMNSLRAEDTAVYYCAKDYSSGDWIDYGMDVWGQGTTVTVSS
VL: DIQMTQSPSSLSASVGDRVTITCQASQDISNYLNWYQQKPGKAPKLLIYDASNLATGVPSRFSGSGSGTDFTFTISSLQPEDIATYYCQQFDLLPPTFGGGTKVEIK
notes: Purified as IgG; compared with an IgG1 isotype control and detected with anti-human IgG Fc; also called antibody clone number 5; clone 5
B6: in assay [1], the “gMFI (fold increase over isotype)” value was 3.8 fold increase over isotype. For the same molecule, in assay [2], the “CD112 blocking max inhibition (%)” value turned out to be 97% and the IC50 was 0.17 ng/mL. The “gMFI (fold increase over isotype)” value in assay [3] is 63.3 fold increase over isotype. Moreover, the “CD112 blocking max inhibition ELISA (%)” value in assay [4] worked out at 97.4%.
